What was measured:
[1] = tested on: Human mesenchymal stromal/stem adipose tissue cells (ATSC); assay: Proliferation of adipose tissue stem cells (ATSC), [H3]-thymidine incorporation; type: cell-based; settings: for Cell proliferation (cpm × 103): 24 h
Excerpt: Human mesenchymal stromal/stem adipose tissue cells (ATSC) were isolated either from liposuction aspirates or from products of the fat deposit removed during the cosmetic surgery. The tissue was mechanically split to the fragments of several cubic millimeters. A suspension of tissue was mixed with type I Collagenase (200 U/ml) and Dispase (30 U/ml) (Sigma) in solution of 50% DMEM (Sigma, D-5523), 50% F12 (Sigma, N-6760), 1% BSA (Sigma), /100 U/ml penicillin and 100 U/ml ampicilline in 1:1 v/v and incubated for 1 hr at 37° C. to with mixing, following by filtering through 40 μm membrane (BD Falcon). The suspension was centrifuged 5 min at 200 g, upper layer was removed, and pellet consisting of separate non-adipose cells was treated by erythrocyte lysis buffer (154 mM NH4Cl, 10 mM KHCO3, 0.1 mM EDTA) during 5 min at 37° C., following by 5 min centrifugation at 300 g. Cell pellet was resuspended in DMEM/10% FBS. Resulting cells were cultured in the same medium in plastic flasks in CO2 incubator (37° C., 5% CO2). When reaching confluence, the cells were passaged by treatment the cell monolayer with 0.25% trypsin/0.02% EDTA. For the purpose of long-time storage, the cells were frozen in the culture medium supplemented by 15-20% FBS and 10% DMSO. Adipose cells were cultivated in DMEM/F12 medium with the addition 10% FBS 0.1% ECGF on 60 mm Petri dishes at 37° C. and 5% CO2. For the passages 0.25% trypsin/0.02% EDTA. solution was used. For the purpose of long-time storage, the cells were frozen in the culture medium supplemented by 15-20% FBS and 10% DMSO. Adipose tissue stem cells (ATSC) were cultivated in DMEM/F12 medium with the addition 10% FBS 0.1% ECGF on 60 mm Petri dishes at 37° C. and 5% CO2. For the passages 0.25% trypsin/0.02% EDTA solution was used. For the purpose of long-time storage, the cells were frozen in the culture medium supplemented by 15-20% FBS and 10% DMSO.
Human donor ATSC were isolated and cultivated as described above, the cells from 2-4 passage were taken in the study. ADSC (3×10^4) were plated in flat-bottom 96-well plates (Costar, USA) in complete medium with 10% FCS, after 18 h the medium was changed onto the medium with 5% human sera and cells were treated with increasing amounts of rhAFP (0-500 μg/ml) for 24 h. The direct effect of rhAFP on proliferation of ATSC was measured by [H^3]-thymidine incorporation. For the last 4 h 1 μCi of methyl-[H^3]-thymidine was added to the cultures.

[2] = tested on: cells of B-cellular lymphoma Raji; assay: Nude line mice implanted with Raji lymphoma cells, tumor size; type: in vivo; settings: intraperitoneally daily for 20 days, 10 animals, listed as AFP
Excerpt: Anticancer preparations on the base of rAFP and of modified forms thereof may be used for inhibition of the growth of malignant neoplasms, such as primary or metastatic cancer of the liver, blood cancer (leucosis, myeloblastoma, lymphoma), breast cancer, prostate cancer. In order to determine the sensitivity of tumor cells to rAFP, it is possible to use different methods both in vitro and also in vivo. The method of determining activity in vitro is described in the preceding example 8. In order to determine the oncosuppressive action of preparations on the base of AFP in vivo, animal models may be used, for example Nude mice with subcutaneously or intraperitoneally implanted human lines of cancer cells, such as Raji, HepG2, LnCap, MCF-7 and others. For example, cells of B-cellular lymphoma Raji were administered subcutaneously in an amount of 1-5×10^6 per mouse. Administration of the rAFP and derivatives thereof was begun 7 days […] implantation of tumor cells intraperioneally or intravenously in an amount of 1-10 mg/kg. The physiological buffered solution (PBS) was used as a control. The size of the tumor was evaluated by daily measurements with the aid of a micrometer.

B1: rhAFP: recombinant human alpha-fetoprotein secreted by yeast Saccharomyces cerevisiae YBS723/pKX, glycosylated, mature human AFP sequence SEQ ID NO:2 (protein, listed as Homo sapiens)
chain: TLHRNEYGIASILDSYQCTAEISLADLATIFFAQFVQEATYKEVSKMVKDALTAIEKPTGDEQSSGCLENQLPAFLEELCHEKEILEKYGHSDCCSQSEEGRHNCFLAHKKPTPASIPLFQVPEPVTSCEAYEEDRETFMNKFIYEIARRHPFLYAPTILLWAARYDKIIPSCCKAENAVECFQTKAATVTKELRESSLLNQHACAVMKNFGTRTFQAITVTKLSQKFTKVNFTEIQKLVLDVAHVHEHCCRGDVLDCLQDGEKIMSYICSQQDTLSNKITECCKLTTLERGQCIIHAENDEKPEGLSPNLNRFLGDRDFNQFSSGEKNIFLASFVHEYSRRHPQLAVSVILRVAKGYQELLEKCFQTENPLECQDKGEEELQKYIQESQALAKRSCGLFQKLGEYYLQNAFLVAYTKKAPQLTSSELMAITRKMAATAATCCQLSEDKLLACGEGAADIIIGHLCIRHEMTPVNPGVGQCCTSSYANRRPCFSSLVVDETYVPPAFSDDKFIFHKDLCQAQGVALQTMKQEFLINLVKQKPQITEEQLEAVIADFSGLLEKCCQGQEQEVCFAEEGQKLISKTRAALGV
modifications: yeast glycosylation
Maximum effect on proliferation of ATSC ([1]; 300 μg/ml of rhAFP, compared to untreated control): 50% | Cell proliferation, change versus control ([1]; AFP 0.100 mg/ml, 2 passage): (+16%) | Cell proliferation (cpm × 103) ([1]; AFP 0.100 mg/ml, 2 passage, control 17.8 ± 6.4): 20.7 ± 0.7 cpm × 103 | Cell proliferation, change versus control ([1]; AFP 0.100 mg/ml, 3 passage): (+7%) | Cell proliferation (cpm × 103) ([1]; AFP 0.100 mg/ml, 3 passage, control 16.5 ± 1.5): 17.7 ± 5.3 cpm × 103 | Cell proliferation, change versus control ([1]; AFP 0.100 mg/ml, 4 passage): (+20%) | Cell proliferation (cpm × 103) ([1]; AFP 0.100 mg/ml, 4 passage, control 0.83 ± 0.1): 1.0 ± 0.08 cpm × 103 | Cell proliferation, change versus control ([1]; AFP 0.300 mg/ml, 2 passage): (+44%) | Cell proliferation (cpm × 103) ([1]; AFP 0.300 mg/ml, 2 passage, control 17.8 ± 6.4): 25.8 ± 4.1 cpm × 103 | Cell proliferation, change versus control ([1]; AFP 0.300 mg/ml, 3 passage): (+35%) | Cell proliferation (cpm × 103) ([1]; AFP 0.300 mg/ml, 3 passage, control 16.5 ± 1.5): 22.4 ± 1.4 cpm × 103 | Cell proliferation, change versus control ([1]; AFP 0.300 mg/ml, 4 passage): (+50%) | Cell proliferation (cpm × 103) ([1]; AFP 0.300 mg/ml, 4 passage, control 0.83 ± 0.1): 1.2 ± 0.24 cpm × 103 | Results (number of animals - tumor outcome) ([2]; 0.5 mg AFP per injection): 2-stabilization | Results (number of animals - tumor outcome) ([2]; 0.5 mg AFP per injection, animals where tumor did not develop): 3-tumor did not develop | Results (number of animals - tumor outcome) ([2]; 0.5 mg AFP per injection, animals with 50% tumor inhibition): 5-50% inhibition | Results (number of animals - tumor outcome) ([2]; 1 mg AFP per injection): 2-stabilizaton | Results (number of animals - tumor outcome) ([2]; 1 mg AFP per injection, animals where tumor did not develop): 3-tumor did not develop | Results (number of animals - tumor outcome) ([2]; 1 mg AFP per injection, animals with 50% tumor inhibition): 5-50% inhibition | Results (number of animals - tumor outcome) ([2]; 2 mg AFP per injection): 2-stabilization | Results (number of animals - tumor outcome) ([2]; 2 mg AFP per injection, animals where tumor did not develop): 3-tumor did not develop | Results (number of animals - tumor outcome) ([2]; 2 mg AFP per injection, animals with 50% tumor inhibition): 5-50% inhibition

Reference: patent publication US9931373B2, “Method of reducing cancer cell proliferation by administering recombinant alpha-fetoprotein” (priority 2005, dated 2018)
